Results as given in article PMC7547225.

Target: bacterially produced mm PCDH15 EC9-MAD12 (Mus musculus)
Assay: SAXS

## bacterially produced mm PCDH15 EC9-MAD12 (domain or fragment)
  stoichiometry N: 2
